Target: the molecule itself
Test: western blot of Prdx4 dimers and monomers; primary motor neuron cultures treated with H2O2, Tempol or Edaravone; cells lysed with 100 mM maleimide; anti-mPrdx4 blot

B1: mouse Prdx4, endogenous in primary motor neuron cultures (enzyme, UniProt O08807 41-274, looked up)
chain: LESDERFRTRENECHFYAGGQVYPGEASRVSVADHSLHLSKAKISKPAPYWEGTAVINGEFKELKLTDYRGKYLVFFFYPLDFTFVCPTEIIAFGDRIEEFKSINTEVVACSVDSQFTHLAWINTPRRQGGLGPIRIPLLSDLNHQISKDYGVYLEDSGHTLRGLFIIDDKGVLRQITLNDLPVGRSVDETLRLVQAFQYTDKHGEVCPAGWKPGSETIIPDPAGKLKYFDKLN
notes: Peroxiredoxin 4 (Prdx4), mouse, endogenous; also called mPrdx4; source: endogenous, primary motor neuron cultures from E11.5 mouse spinal cords
- stoichiometry N: 2

— article PMC4432624, “Prdx4 is a compartment-specific H2O2 sensor that regulates neurogenesis by controlling surface expression of GDE2” (Nature Communications, 2015)
